Assay results from the Immune Epitope Database (IEDB).
pIC50, pKd: −log10 of the molar value. One block for each sequence: values may come before it.

How the values were obtained:
HLA-B*15:01 [1] = assay: IEDB peptide-MHC binding, purified MHC/competitive/fluorescence; filed as Kd, often an IC50 or EC50 that approximates it; ≥ and ≤ were set here for values at or beyond the usual limits of such assays
HLA-B*40:01 = assay: as above; conditions: source organism: Salmonella enterica subsp. enterica serovar Typhi
HLA-A*26:01 = assay: as above
HLA-B*51:01 = assay: as above
HLA-A*02:12 = assay: as above
HLA-A*02:16 = assay: as above
HLA-B*39:01 = assay: as above
HLA-A*02:19 = assay: as above
HLA-A*03:01 [2] = assay: as above
HLA-A*24:03 = assay: as above
HLA-A*69:01 = assay: as above
HLA-B*57:01 = assay: as above
HLA-B*18:01 = assay: as above
HLA-B*27:03 = assay: as above
HLA-A*02:01 [3] = assay: as above
HLA-A*68:02 = assay: as above
HLA-B*46:01 = assay: as above
HLA-B*27:05 = assay: as above; conditions: source organism: Salmonella enterica subsp. enterica serovar Typhi
HLA-A*30:01 = assay: as above; conditions: source organism: Human immunodeficiency virus 1
HLA-A*02:06 = assay: as above; conditions: source organism: Human immunodeficiency virus 1
HLA-A*02:03 = assay: as above
HLA-A*26:02 = assay: as above; conditions: source organism: Human immunodeficiency virus 1
HLA-A*11:01 [4] = assay: as above; conditions: source organism: Human immunodeficiency virus 1
HLA-A*01:01 [5] = assay: as above; conditions: source organism: Human immunodeficiency virus 1
HLA-B*15:17 = assay: as above
HLA-C*07:02 = assay: IEDB peptide-MHC binding, purified MHC/direct/fluorescence; filed as Kd, often an IC50 or EC50 that approximates it; ≥ and ≤ were set here for values at or beyond the usual limits of such assays; conditions: source organism: Bacillus anthracis str. A2012
HLA-C*06:02 = assay: as above; conditions: source organism: Bacillus anthracis str. A2012
HLA-C*15:02 = assay: as above; conditions: source organism: Bacillus anthracis str. A2012
HLA-C*12:03 = assay: as above; conditions: source organism: Bacillus anthracis str. A2012
HLA-C*03:03 = assay: as above; conditions: source organism: Bacillus anthracis str. A2012
HLA-C*14:02 = assay: as above; conditions: source organism: Bacillus anthracis str. A2012
HLA-B*15:02 = assay: IEDB peptide-MHC binding, purified MHC/competitive/fluorescence; filed as Kd, often an IC50 or EC50 that approximates it; ≥ and ≤ were set here for values at or beyond the usual limits of such assays
HLA-B*15:01 [6] = assay: IEDB peptide-MHC binding, purified MHC/competitive/fluorescence; ≥ and ≤ were set here for values at or beyond the usual limits of such assays
HLA-A*01:01 [7] = assay: as above
HLA-A*02:01 [8] = assay: as above
HLA-A*29:02 = assay: IEDB peptide-MHC binding, purified MHC/competitive/fluorescence; filed as Kd, often an IC50 or EC50 that approximates it; ≥ and ≤ were set here for values at or beyond the usual limits of such assays; conditions: source organism: Brucella suis ATCC 23445
HLA-A*02:11 = assay: as above
HLA-A*03:01 [9] = assay: IEDB peptide-MHC binding, purified MHC/competitive/radioactivity; filed as Kd, often an IC50 or EC50 that approximates it; ≥ and ≤ were set here for values at or beyond the usual limits of such assays; conditions: source organism: Vaccinia virus WR
HLA-A*31:01 = assay: as above; conditions: source organism: Vaccinia virus WR
HLA-A*11:01 [10] = assay: as above; conditions: source organism: Vaccinia virus WR
HLA-A*68:01 = assay: as above; conditions: source organism: Vaccinia virus WR
HLA-A*33:01 = assay: as above; conditions: source organism: Vaccinia virus WR
[11] = source organism: Salmonella enterica subsp. enterica serovar Typhi
[12] = source organism: Escherichia coli HS
[13] = source organism: Human immunodeficiency virus 1
[14] = source organism: Bacillus anthracis str. A2012
[15] = source organism: Zaire ebolavirus
[16] = source organism: Brucella suis ATCC 23445
[17] = source organism: Vaccinia virus Copenhagen

Sequence: MEDNFSIYI
- pKd (HLA-B*15:01 [1]; [11]): ≤ 4.70
- pKd (HLA-B*40:01): 8.47

- pKd (HLA-A*26:01; [12]): ≤ 4.70
- pKd (HLA-B*51:01; [12]): ≤ 4.70
- pKd (HLA-A*02:12; [12]): ≤ 4.70
- pKd (HLA-A*02:16; [12]): ≤ 4.70
- pKd (HLA-B*39:01; [12]): ≤ 4.70
- pKd (HLA-A*02:19; [12]): ≤ 4.70
- pKd (HLA-A*03:01 [2]; [12]): 7.47
- pKd (HLA-A*24:03; [12]): ≤ 4.70
- pKd (HLA-B*15:01 [1]; [12]): ≤ 4.70
- pKd (HLA-A*69:01; [12]): ≤ 4.70
- pKd (HLA-B*57:01; [12]): ≤ 4.70
- pKd (HLA-B*18:01; [12]): ≤ 4.70
- pKd (HLA-B*27:03; [12]): ≤ 4.70
- pKd (HLA-A*02:01 [3]; [12]): ≤ 4.70
- pKd (HLA-A*68:02; [12]): ≤ 4.70
- pKd (HLA-B*46:01; [12]): ≤ 4.70
Sequence: ISLWGSLLK

Sequence: KQFCLSILL
- pKd (HLA-B*27:05): 6.68
- pKd (HLA-B*39:01; [11]): 7.19
- pKd (HLA-A*02:01 [3]; [11]): 8.54
- pKd (HLA-B*40:01): 7.04

Sequence: RSLYNTVAVLY
- pKd (HLA-A*30:01): ≤ 4.70
- pKd (HLA-A*02:06): 6.22
- pKd (HLA-A*02:03; [13]): 5.87
- pKd (HLA-B*15:01 [1]; [13]): 5.88
- pKd (HLA-A*26:02): 5.63
- pKd (HLA-A*11:01 [4]): 5.82
- pKd (HLA-B*18:01; [13]): 6.60
- pKd (HLA-A*01:01 [5]): ≤ 4.70
- pKd (HLA-B*15:17; [13]): 7.93

Sequence: SMFDSWGPF
- pKd (HLA-C*07:02): 6.65
- pKd (HLA-C*06:02): ≤ 4.70
- pKd (HLA-C*15:02): ≤ 4.70
- pKd (HLA-C*12:03): 6.99
- pKd (HLA-C*03:03): ≤ 4.70
- pKd (HLA-C*14:02): 6.73
- pKd (HLA-B*15:02; [14]): 8.30
- pKd (HLA-B*46:01; [14]): 8.37

Sequence: WIGQTSHGW
- pKd (HLA-B*15:02; source organism: Vibrio cholerae): ≤ 4.70

Sequence: FLESGAVKY
- pIC50 (HLA-B*15:01 [6]; [15]): 4.71
- pIC50 (HLA-A*01:01 [7]; [15]): 5.47
- pIC50 (HLA-A*02:01 [8]; [15]): 4.58

Sequence: ITAVNRYFK
- pKd (HLA-A*26:01; [16]): ≤ 4.70
- pKd (HLA-B*51:01; [16]): ≤ 4.70
- pKd (HLA-A*02:12; [16]): ≤ 4.70
- pKd (HLA-A*02:16; [16]): ≤ 4.70
- pKd (HLA-B*39:01; [16]): ≤ 4.70
- pKd (HLA-A*02:19; [16]): ≤ 4.70
- pKd (HLA-A*03:01 [2]; [16]): 7.24
- pKd (HLA-A*02:03; [16]): ≤ 4.70
- pKd (HLA-A*24:03; [16]): ≤ 4.70
- pKd (HLA-B*15:01 [1]; [16]): ≤ 4.70
- pKd (HLA-A*69:01; [16]): ≤ 4.70
- pKd (HLA-B*57:01; [16]): ≤ 4.70
- pKd (HLA-B*18:01; [16]): ≤ 4.70
- pKd (HLA-B*27:03; [16]): ≤ 4.70
- pKd (HLA-A*02:01 [3]; [16]): ≤ 4.70
- pKd (HLA-A*68:02; [16]): ≤ 4.70
- pKd (HLA-B*15:17; [16]): ≤ 4.70
- pKd (HLA-A*29:02): 6.12
- pKd (HLA-A*02:11; [16]): ≤ 4.70
- pKd (HLA-B*46:01; [16]): ≤ 4.70

Sequence: KMGKAGYVT
- pKd (HLA-A*02:12; [13]): 5.92
- pKd (HLA-A*02:06): 6.22
- pKd (HLA-A*02:16; [13]): 6.58
- pKd (HLA-A*02:19; [13]): 5.22
- pKd (HLA-A*02:03; [13]): 6.71
- pKd (HLA-A*69:01; [13]): ≤ 4.70
- pKd (HLA-A*02:01 [3]; [13]): 6.49
- pKd (HLA-A*02:11; [13]): 7.61

Sequence: ALVEMGHHV
- pKd (HLA-A*02:12; [13]): 7.76
- pKd (HLA-A*02:06): 8.93
- pKd (HLA-A*02:16; [13]): 8.51
- pKd (HLA-A*02:19; [13]): 6.87
- pKd (HLA-A*02:03; [13]): 8.44
- pKd (HLA-A*69:01; [13]): 5.70
- pKd (HLA-A*02:01 [3]; [13]): 6.48
- pKd (HLA-A*02:11; [13]): 8.74

Sequence: GQRDTDVPY
- pKd (HLA-B*15:02; source organism: Yersinia enterocolitica subsp. enterocolitica 8081): 5.91

Sequence: FLRSSSAIE
- pKd (HLA-B*15:02; source organism: Coxiella burnetii Dugway 5J108-111): ≤ 4.70

Sequence: MLEGETKLY
- pIC50 (HLA-B*15:01 [6]; [17]): 4.21
- pIC50 (HLA-A*01:01 [7]; [17]): 5.09
- pIC50 (HLA-A*02:01 [8]; [17]): ≤ 3.78
- pKd (HLA-A*03:01 [9]): 6.66
- pKd (HLA-A*31:01): ≤ 4.21
- pKd (HLA-A*11:01 [10]): 5.15
- pKd (HLA-A*68:01): 4.77
- pKd (HLA-A*33:01): ≤ 4.24
